The Human Domainome abundance scans (Beltran et al. 2025)
± gives the uncertainty stated by the source.

B1: GAS2-like protein 1, residues 209 to 276; numbered along this chain, Q99501 (parent)
chain: DELVREILGRCTCPDQFPMIKVSEGKYRVGDSSLLIFVRVLRSHVMVRVGGGWDTLEHYLDKHDPCRC

Variants of: B1
Experiment: abundance fitness (aPCA) (normalised: wild type 0, dead -1); higher = more abundant; growth selection in yeast, the domain comes from the species named
Conditions: Homo sapiens

Variant	abundance fitness
DELVREILGRCTCPDQFPMIKVSEGKYRVGDSSLLIFVRVLRSHVMVRVGGGWDTLGHYLDKHDPCRC [E57G]	-0.627 ± 0.11
DELVREILGRCTCPDQFPMIKVSHGKYRVGDSSLLIFVRVLRSHVMVRVGGGWDTLEHYLDKHDPCRC [E24H]	-0.193 ± 0.22
DELVREILGRCTCPDQFPMIKVSRGKYRVGDSSLLIFVRVLRSHVMVRVGGGWDTLEHYLDKHDPCRC [E24R]	-0.417 ± 0.075
DELVREILGRCTCPDQFPMIKVSSGKYRVGDSSLLIFVRVLRSHVMVRVGGGWDTLEHYLDKHDPCRC [E24S]	-0.254 ± 0.084
DELVREILGRCTWPDQFPMIKVSEGKYRVGDSSLLIFVRVLRSHVMVRVGGGWDTLEHYLDKHDPCRC [C13W]	-0.922 ± 0.12
DELVREILGRCTKPDQFPMIKVSEGKYRVGDSSLLIFVRVLRSHVMVRVGGGWDTLEHYLDKHDPCRC [C13K]	-1.13 ± 0.26
DELVREILGRCTCPDQFPMITVSEGKYRVGDSSLLIFVRVLRSHVMVRVGGGWDTLEHYLDKHDPCRC [K21T]	-0.739 ± 0.11
DELVREILGRCTCPDQFPMIKVSEGKYRVGDSSLLIFVRVLRSHVMVRVGGGWDTLEHSLDKHDPCRC [Y59S]	-0.583 ± 0.059
DELVREILGRCTCPDQFPMIKVSEGKYRVGDSSLLIFVRVLRSHVMVRVGGGWDTLEHKLDKHDPCRC [Y59K]	-0.782 ± 0.13
DELVREILGRCTCPDQFPMIKVSEGKYRVGDSSLLIFVRVLRSHVMVRVGGGWDTLEHGLDKHDPCRC [Y59G]	-0.904 ± 0.12
DELVREILGRCTCPDQFPMIKVSEGKYRVGDSSLLIFVRVLRSHVMVRVGGGWDTLEHLLDKHDPCRC [Y59L]	-0.749 ± 0.073
DELVREILGRCTCPDQFPMIKVSEGKYRVGDSSLLIFVRVLRSHVMVRVGGGWDTLEHPLDKHDPCRC [Y59P]	-0.954 ± 0.14
DELVREILGRCTCPDQFPMIKVSEGKYRVGDSSLLIFVRVLRSHVMVRVGGGWDTLEHYLDKHDHCRC [P65H]	-0.605 ± 0.22
DELVREILGRCTCPDQFPMIKVSEGKYRVGDSSLLIFVRVLRSHPMVRVGGGWDTLEHYLDKHDPCRC [V45P]	-0.169 ± 0.098
DELVIEILGRCTCPDQFPMIKVSEGKYRVGDSSLLIFVRVLRSHVMVRVGGGWDTLEHYLDKHDPCRC [R5I]	-0.465 ± 0.094
DELVVEILGRCTCPDQFPMIKVSEGKYRVGDSSLLIFVRVLRSHVMVRVGGGWDTLEHYLDKHDPCRC [R5V]	-0.584 ± 0.12
DEVVREILGRCTCPDQFPMIKVSEGKYRVGDSSLLIFVRVLRSHVMVRVGGGWDTLEHYLDKHDPCRC [L3V]	-0.324 ± 0.057
DELVRQILGRCTCPDQFPMIKVSEGKYRVGDSSLLIFVRVLRSHVMVRVGGGWDTLEHYLDKHDPCRC [E6Q]	-0.071 ± 0.053
DELVRWILGRCTCPDQFPMIKVSEGKYRVGDSSLLIFVRVLRSHVMVRVGGGWDTLEHYLDKHDPCRC [E6W]	-0.821 ± 0.093
DELVREILGRCTCPDQFPMIKVSEGKYRVGDSSLLIFVRVLRSHVMVRVGGIWDTLEHYLDKHDPCRC [G52I]	-0.038 ± 0.061

Variant	abundance fitness
DELVREILGRCTCPDQFPMIKVSEGKYRVGDSSLLIFVRVLRSHVMVRVGGPWDTLEHYLDKHDPCRC [G52P]	-0.669 ± 0.093
DELVREILGRCTCPDQFPMIKVSEGKYRVGDSSLLIFVRVLRSHVMVRVGGHWDTLEHYLDKHDPCRC [G52H]	0.077 ± 0.049
DELVREYLGRCTCPDQFPMIKVSEGKYRVGDSSLLIFVRVLRSHVMVRVGGGWDTLEHYLDKHDPCRC [I7Y]	-0.275 ± 0.14
DELVRERLGRCTCPDQFPMIKVSEGKYRVGDSSLLIFVRVLRSHVMVRVGGGWDTLEHYLDKHDPCRC [I7R]	-0.85 ± 0.097
DELVREILGRCTCPDQFPMIKVSEGKYRVGDSSLLIFVRVLRSHVMVRVGPGWDTLEHYLDKHDPCRC [G51P]	-0.206 ± 0.072
DELVREILGRCTCPDQFPMIKVSEGKYRVGDSSLLIFVRVLRSHVMVRVGTGWDTLEHYLDKHDPCRC [G51T]	0.032 ± 0.051
DELVREILGRCTCPDQFPMIKVSEGKYRVGDSSLLIFVRVLRSHVMVRVGGGWDLLEHYLDKHDPCRC [T55L]	-0.145 ± 0.046
DELVREIVGRCTCPDQFPMIKVSEGKYRVGDSSLLIFVRVLRSHVMVRVGGGWDTLEHYLDKHDPCRC [L8V]	-0.071 ± 0.035
DELVREIQGRCTCPDQFPMIKVSEGKYRVGDSSLLIFVRVLRSHVMVRVGGGWDTLEHYLDKHDPCRC [L8Q]	-0.323 ± 0.12
DELVREILGRCTCPDQFPMIKVSEGKYRVGDSSLLIFVRVLRSHVMVRVGGGWDTLEHYLPKHDPCRC [D61P]	-0.729 ± 0.22
DELVREILGRCTCPDQFPMIKVSEGKYRVGDSSLLIFVRVLRSHVMVRVGGGWDTLEHYLKKHDPCRC [D61K]	-0.249 ± 0.094
DELVREILGRCTCPDVFPMIKVSEGKYRVGDSSLLIFVRVLRSHVMVRVGGGWDTLEHYLDKHDPCRC [Q16V]	-0.269 ± 0.043
DELVREILGRCTCPDQFPMIKVSEGGYRVGDSSLLIFVRVLRSHVMVRVGGGWDTLEHYLDKHDPCRC [K26G]	-0.589 ± 0.2
DELVREILGRCTCPDQFPMIKVSEGKYRVCDSSLLIFVRVLRSHVMVRVGGGWDTLEHYLDKHDPCRC [G30C]	-0.532 ± 0.2
DELVREILGRCTCPDQFPMIKVSEGKYRVGDYSLLIFVRVLRSHVMVRVGGGWDTLEHYLDKHDPCRC [S32Y]	-0.455 ± 0.096
DELVREILGRCTCPDQFPMIKVSEGKYRVGDNSLLIFVRVLRSHVMVRVGGGWDTLEHYLDKHDPCRC [S32N]	-0.071 ± 0.05
DELVREILGRCTCPDQFPMIKVSEGKYRVGDSSLLIFVRVLRSHVHVRVGGGWDTLEHYLDKHDPCRC [M46H]	-0.332 ± 0.095
DELVREILGRCTCPDQQPMIKVSEGKYRVGDSSLLIFVRVLRSHVMVRVGGGWDTLEHYLDKHDPCRC [F17Q]	-0.88 ± 0.18
DELVREILGRCTCPDQFPMIKVSEGKYRVGDSSLLIFVRVLRSHVMVRVGGGWDTLEHYLDKHDPARC [C66A]	-0.878 ± 0.085
